# Results taken from article PMC11493965, “Ethane-oxidising archaea couple CO2 generation to F420 reduction” (Nature Communications, 2024).
# Biological target: ζ subunit (F420-reductase subunit) of the CODH component of the ACDS from Candidatus Ethanoperedens thermophilum (Candidatus Ethanoperedens thermophilum)
# Assay: crystal structure; α2ε2ζ2 ACDS subcomplex purified natively as one complex; sitting drop, anaerobic, 20 °C, 20% PEG 6000, 100 mM MES pH 6.0, 200 mM ammonium chloride, 1 mM FAD and FMN added; refined to 1.89 Å
substance,measurement,value
ζ subunit (F420-reductase subunit) of the CODH component of the ACDS from Candidatus Ethanoperedens thermophilum (natural protein),stoichiometry N,2
